Test results from publication PMC9061721 (2022).

Experiments:
[1] = target: A/Hong Kong/01/1968 (H3N2) HA (influenza A virus A/Hong Kong/01/1968 …, UniProt Q91MA7); experiment: ELISA
[2] = target: SC/09 H1N1 HA protein (A/Sichuan/01/2009) (influenza A virus A/Sichuan/01/2009 …); experiment: ELISA

B1: 28-12 (antibody, V domains shown)
VH: EVQLVESGGGLVQPGGSLRLSCAASGFTFSTYNMNWVRQAPGKGLEWLSYISTSSNTIYYADSVKGRFTISRDNAKNSLFLQMNSLRDEDTAVYYCARDRGCSSTNCYVVGYYFYGMDVWGQGTTVTVSS
VL: DIQMTQSPSSVSASVGDRVTITCRASQGISSYLAWYQLKPGRAPKLLIYGATRLQSGVPSRFSGSGSGTDFTLTISGLQPEDFATYHCQQADSFPLTFGQGTRLEIK
EC50 [1]: 0.0754 µg/mL | EC50 [2]: 0.0647 µg/mL
